Source: PMC6384913, “Exploring the suitability of RanBP2-type Zinc Fingers for RNA-binding protein design”

T1: (hRBM10-ZF)x2 (Homo sapiens, UniProt P98175 212-243)
T1 chain: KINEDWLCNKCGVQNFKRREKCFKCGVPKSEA

T2: (ABI3-5Sup-ZF)x2 (Arabidopsis thaliana, UniProt F4JCU0 379-406)
T2 chain: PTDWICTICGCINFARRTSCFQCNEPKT

T3: (FUS-ZF)x2 (Xenopus laevis, UniProt Q7ZXQ2 435-467)
T3 chain: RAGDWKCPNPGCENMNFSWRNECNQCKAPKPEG

T4: (ZRANB1-B-ZF)x2 (Danio rerio, UniProt A0JMQ9 152-182)
T4 chain: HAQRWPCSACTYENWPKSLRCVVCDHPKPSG

T5: (mRBM10-ZF N4D)x2 (Mus musculus, UniProt Q99KG3-2 135-166+=GSGSG+135-166, V161M;internal_change)
T5 sequence: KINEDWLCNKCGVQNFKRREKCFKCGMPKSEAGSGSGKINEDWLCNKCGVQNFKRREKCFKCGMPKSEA


How the values were obtained:
(hRBM10-ZF)x2 = molecular target: T1, (hRBM10-ZF)x2; assay: BLI; ITC: 50 mM Tris pH 7.5, 150 mM NaCl, 1 mM DTT, 0.1 mM ZnCl2, 25 °C; BLI: 50 mM Tris pH 7.5, 150 mM NaCl, 1 mM DTT, 0.1% BSA, 0.02% Tween, 30 °C; settings: protein: recombinant; tags: GST cleaved (HRV-3C); label: 5' biotin
(EWS-ZF)x2 [1] = molecular target: T6, (EWS-ZF)x2 (Homo sapiens, UniProt Q01844-5 523-555); assay: as above; settings: protein: recombinant; tags: GST cleaved (HRV-3C); label: 5' biotin
(ABI3-5Sup-ZF)x2 [2] = molecular target: T2, (ABI3-5Sup-ZF)x2; assay: as above; settings: protein: recombinant; tags: GST cleaved (HRV-3C); label: 5' biotin
(FUS-ZF)x2 [3] = molecular target: T3, (FUS-ZF)x2; assay: as above; settings: protein: recombinant; tags: GST cleaved (HRV-3C); label: 5' biotin
(ZRANB1-B-ZF)x2 = molecular target: T4, (ZRANB1-B-ZF)x2; assay: ITC; ITC: 50 mM Tris pH 7.5, 150 mM NaCl, 1 mM DTT, 0.1 mM ZnCl2, 25 °C; BLI: 50 mM Tris pH 7.5, 150 mM NaCl, 1 mM DTT, 0.1% BSA, 0.02% Tween, 30 °C; settings: protein: recombinant; tags: GST cleaved (HRV-3C)
(mRBM10-ZF N4D)x2 = molecular target: T5, (mRBM10-ZF N4D)x2; assay: BLI; ITC: 50 mM Tris pH 7.5, 150 mM NaCl, 1 mM DTT, 0.1 mM ZnCl2, 25 °C; BLI: 50 mM Tris pH 7.5, 150 mM NaCl, 1 mM DTT, 0.1% BSA, 0.02% Tween, 30 °C; settings: protein: recombinant; tags: GST cleaved (HRV-3C); label: 5' biotin
(ABI3-5Sup-ZF)x2 [4] = molecular target: T2, (ABI3-5Sup-ZF)x2; assay: ITC; ITC: 50 mM Tris pH 7.5, 150 mM NaCl, 1 mM DTT, 0.1 mM ZnCl2, 25 °C; BLI: 50 mM Tris pH 7.5, 150 mM NaCl, 1 mM DTT, 0.1% BSA, 0.02% Tween, 30 °C; settings: protein: recombinant; tags: GST cleaved (HRV-3C)
(EWS-ZF)x2 [5] = molecular target: T6, (EWS-ZF)x2; assay: as above; settings: protein: recombinant; tags: GST cleaved (HRV-3C)
(FUS-ZF)x2 [6] = molecular target: T3, (FUS-ZF)x2; assay: as above; settings: protein: recombinant; tags: GST cleaved (HRV-3C)

T6 sequence (Q01844 518-550): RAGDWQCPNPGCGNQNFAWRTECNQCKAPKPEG

| Binder | binding result ((hRBM10-ZF)x2) | binding result ((EWS-ZF)x2 [1]) | binding result ((ABI3-5Sup-ZF)x2 [2]) | binding result ((FUS-ZF)x2 [3]) | Kd ((hRBM10-ZF)x2) [nM] | Kd ((ABI3-5Sup-ZF)x2 [2]) [nM] | further results |
| --- | --- | --- | --- | --- | --- | --- | --- |
| AAAGAUGAUAAA (ssRNA) [(GAU)x2 biotin] | no binding | no binding | no binding | no binding |  |  |  |
| AAAGGCGGCAAA (ssRNA) [(GGC)x2 biotin] |  | no binding |  | no binding | 2600 ± 30 |  |  |
| AAAAAAAAAAAA (ssRNA) [(AAA)x2 biotin] | no binding | no binding | no binding | no binding |  |  |  |
| AAAAAAAAAAAA (ssRNA) [polyA control 12-mer] |  |  |  |  |  |  | binding result ((ZRANB1-B-ZF)x2): no binding |
| AAAGGGGGGAAA (ssRNA) [(GGG)x2 biotin] |  |  |  |  | 300 ± 30 | 3000 ± 500 | Kd ((mRBM10-ZF N4D)x2): 400 ± 30 nM; Kd ((EWS-ZF)x2 [1]): 1100 ± 10 nM; Kd ((FUS-ZF)x2 [3]): 1100 ± 300 nM |
| AAAGGAGGAAAA (ssRNA) [(GGA)x2] |  |  |  |  |  |  | Kd ((ABI3-5Sup-ZF)x2 [4]): 1000 ± 100 nM |
| AAAGGUGGUAAA (ssRNA) [(GGU)x2 biotin] |  |  |  |  | 500 ± 10 | 1000 ± 10 | Kd ((EWS-ZF)x2 [1]): 800 ± 60 nM; Kd ((FUS-ZF)x2 [3]): 800 ± 70 nM |
| AAAGGAGGAAAA (ssRNA) [(GGA)x2 biotin] |  | no binding |  | no binding | 1400 ± 10 | 2600 ± 1000 |  |
| AAAAGUAGUAAA (ssRNA) [(AGU)x2 biotin] | no binding | no binding | no binding | no binding |  |  |  |
| AAAGGUGGUAAA (ssRNA) [(GGU)x2] |  |  |  |  |  |  | binding result ((ZRANB1-B-ZF)x2): no binding; Kd ((EWS-ZF)x2 [5]): 200 ± 30 nM; Kd ((ABI3-5Sup-ZF)x2 [4]): 700 ± 100 nM; Kd ((FUS-ZF)x2 [6]): 200 ± 20 nM |
